{
  "source": "patent US20200317817A1",
  "about": "(XOMA US, published 2020)",
  "binders": {"B1": {"name": "XPA.85.329 (antibody, V domains shown)", "VH": "QMQLVQSGAEVKKPGSSVKVSCKASGGTFSSYAISWVRQAPGQGLEWMGGIIPIFGTANYAQKFQGRVTITADESTSTAYMELSSLRSEDTAVYYCARGYVVARLWGQGTLVTVSS", "VL": "DIVMTQTPLSLSVTPGQPASISCKSSQSLLHIDGLTYLYWYLQKPGQPPQLLIYEVSHRFSGVSDKFSGSGSGTDFTLTISRVEAEDVGVYYCMQSLHLPITFGQGTRLEIK", "notes": "IgG; also called Ab329; XPA.329"}},
  "key": {"[1]": {"biological_target": "T1, human PTH2R overexpressed on CHO cells (human, UniProt P49190 25-550)", "T1 construct": "whole, on cells; also called CHO human PTH2R", "T1 sequence (P49190 25-550)": "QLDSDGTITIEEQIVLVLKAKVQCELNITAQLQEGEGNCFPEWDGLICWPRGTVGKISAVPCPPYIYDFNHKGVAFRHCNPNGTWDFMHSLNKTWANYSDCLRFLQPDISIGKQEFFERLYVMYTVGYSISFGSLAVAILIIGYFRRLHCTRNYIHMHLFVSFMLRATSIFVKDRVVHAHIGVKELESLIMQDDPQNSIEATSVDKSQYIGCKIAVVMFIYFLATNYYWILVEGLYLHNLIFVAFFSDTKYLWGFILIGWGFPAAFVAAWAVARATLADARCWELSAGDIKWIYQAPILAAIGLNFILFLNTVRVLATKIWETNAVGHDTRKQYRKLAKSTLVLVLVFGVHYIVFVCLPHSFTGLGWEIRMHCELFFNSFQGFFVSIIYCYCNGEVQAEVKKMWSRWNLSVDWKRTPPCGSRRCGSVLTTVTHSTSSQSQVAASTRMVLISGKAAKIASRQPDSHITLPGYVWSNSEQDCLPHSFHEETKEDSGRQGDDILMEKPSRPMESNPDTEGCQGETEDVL", "experiment": "flow cytometry on CHO cells overexpressing human PTH2R, 1 hr at 4 C, APC anti-human IgG", "description": "Increasing concentrations of anti-PTH1R antibodies were added to CHO cells overexpressing human PTH2R and incubated for 1 hr at 4° C. (FIG. 8). Cells were washed twice with FACS Buffer and antibody binding was detected with anti-human IgG APC. […] Anti-KLH.G2 was used a negative control for binding.\nPTH2R has a 51% homology to PTH1R. […] Following two washes, cells were incubated with Allophycocyanin (APC) AffiniPure F(ab′)₂ Fragment Goat Anti-Human IgG (H+L) (Jackson ImmunoResearch, West Grove, Pa.) for 20 minutes at 4° C. Cells were washed twice and resuspended in FACS Buffer. Samples were acquired using BD Cytometer (BD Biosciences, San Jose, Calif.) and data were analyzed using FlowJo (FlowJo, LLC, Ashland, Oreg.) and Prism (GraphPad Software, La Jolla, Calif.). […] Anti-KLH.G2 was used a negative control for binding."}, "[2]": {"biological_target": "T2, human PTH1R on Saos-2 cells (endogenous) (human, UniProt Q03431 27-593)", "T2 sequence (looked up)": "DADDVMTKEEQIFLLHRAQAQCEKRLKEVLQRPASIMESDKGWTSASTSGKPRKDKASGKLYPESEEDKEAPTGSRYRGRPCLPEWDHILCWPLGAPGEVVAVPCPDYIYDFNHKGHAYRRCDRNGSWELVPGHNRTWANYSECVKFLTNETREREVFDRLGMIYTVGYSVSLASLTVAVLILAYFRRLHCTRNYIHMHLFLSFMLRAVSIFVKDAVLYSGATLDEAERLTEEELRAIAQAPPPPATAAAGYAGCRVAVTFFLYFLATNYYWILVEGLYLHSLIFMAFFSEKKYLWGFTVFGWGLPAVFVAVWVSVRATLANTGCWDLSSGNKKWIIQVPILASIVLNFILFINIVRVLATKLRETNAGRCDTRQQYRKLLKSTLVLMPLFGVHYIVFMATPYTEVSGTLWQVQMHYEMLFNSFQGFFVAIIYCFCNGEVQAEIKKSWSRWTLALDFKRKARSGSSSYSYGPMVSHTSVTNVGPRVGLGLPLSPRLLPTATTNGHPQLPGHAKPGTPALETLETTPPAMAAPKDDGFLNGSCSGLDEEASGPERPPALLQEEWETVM", "experiment": "cell-based or functional assay"}, "[3]": {"biological_target": "T3, rat PTH1R on UMR106 cells (rat, UniProt P25961 27-591)", "T3 sequence (looked up)": "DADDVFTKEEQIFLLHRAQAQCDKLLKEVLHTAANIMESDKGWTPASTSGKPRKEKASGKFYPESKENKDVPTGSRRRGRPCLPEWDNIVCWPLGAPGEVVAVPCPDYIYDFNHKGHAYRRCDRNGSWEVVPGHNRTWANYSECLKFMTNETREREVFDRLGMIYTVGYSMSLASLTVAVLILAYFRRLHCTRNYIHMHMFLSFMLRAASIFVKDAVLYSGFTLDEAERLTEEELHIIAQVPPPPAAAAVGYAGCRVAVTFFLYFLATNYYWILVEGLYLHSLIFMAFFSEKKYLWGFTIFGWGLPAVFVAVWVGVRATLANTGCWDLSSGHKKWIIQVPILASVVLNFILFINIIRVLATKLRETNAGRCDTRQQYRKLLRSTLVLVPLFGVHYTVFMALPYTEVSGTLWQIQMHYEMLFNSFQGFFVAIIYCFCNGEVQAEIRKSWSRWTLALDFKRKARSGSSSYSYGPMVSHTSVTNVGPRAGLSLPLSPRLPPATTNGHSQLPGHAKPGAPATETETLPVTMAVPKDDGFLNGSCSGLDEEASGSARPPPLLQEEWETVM", "experiment": "cell-based or functional assay"}, "[4]": {"biological_target": "T4, human PTH1R overexpressed on Saos-2 cells (human, UniProt Q03431 27-593)", "T4 construct": "whole, on cells; also called Saos-2 human PTH1R cells", "T4 sequence (looked up)": "T2 sequence (looked up)", "experiment": "flow cytometry on Saos-2 cells overexpressing human PTH1R, antibody alone, PE anti-human IgG"}, "[5]": {"biological_target": "T5, human PTH1R overexpressed on CHO cells (human, UniProt Q03431 27-593)", "T5 sequence (looked up)": "T2 sequence (looked up)", "experiment": "cell-based or functional assay"}, "[6]": {"biological_target": "T6, mouse PTH1R overexpressed on CHO cells (mouse, UniProt P41593 27-591)", "T6 sequence (looked up)": "T3 sequence (looked up) with S58P, P497L, T518I, T520N, L523I, A528T", "experiment": "cell-based or functional assay"}},
  "note": "Where a chain is given by its changes, count along the chain named.",
  "data": [
    {"binder": "B1", "values": [
      {"measurement": "binding result", "setting": "[1]", "value": "no binding (tested: about 160 nM)"},
      {"measurement": "% inhibition of cAMP accumulation at 1 µM PTH(1-34), 267 nM IgG", "setting": "[2]", "value": 79, "unit": "%"},
      {"measurement": "% inhibition of cAMP accumulation at 1 µM PTHrP(1-34), 267 nM IgG", "setting": "[2]", "value": 90, "unit": "%"},
      {"measurement": "% inhibition of cAMP accumulation at 1 µM PTH(1-34), 267 nM IgG", "setting": "[3]", "value": 50, "unit": "%"},
      {"measurement": "% inhibition of cAMP accumulation at 1 µM PTHrP(1-34), 267 nM IgG", "setting": "[3]", "value": 41, "unit": "%"},
      {"measurement": "EC50", "setting": "[4]", "value": 7.61, "unit": "nM"},
      {"measurement": "IC50, inhibition of PTH(1-34)-induced cAMP accumulation", "setting": "[5]", "value": 16.6, "unit": "nM"},
      {"measurement": "IC50, inhibition of PTHrP(1-34)-induced cAMP accumulation", "setting": "[5]", "value": 6.54, "unit": "nM"},
      {"measurement": "IC50, inhibition of PTHrP(1-34)-induced cAMP accumulation", "setting": "[6]", "value": 2.66, "unit": "nM"}
    ]}
  ]
}
